# ± gives the standard deviation of the averaged measurements.
# Test system: Saccharomyces cerevisiae
# Test: protein stability index of tFT-peptide fusion (C-terminal peptide) (PSI (0-1 scale)); higher = more stable (slower turnover)
# Conditions: genetic background: wild type; temperature: 30 C
# 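Also: PSI is a weighted mean of sequencing reads over stability bins, variants kept only with over 10 reads, mCherry proximal and sfGFP distal, peptide attached via GGGS linker.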
row,Sequence,protein stability index
1,RIYDNKNTGIYH,0.707 ± 0.022
2,RKCMSNSKNNNE,0.669 ± 0.018
3,RKEAVTQTQKNT,0.672 ± 0.051
4,RKEQRTERKSQK,0.721 ± 0.066
5,RKGERRKKKKRR,0.677 ± 0.051
6,RKGKKNKKPKKQ,0.612 ± 0.02
7,RKKEKKERKERK,0.66 ± 0.069
8,RKKENKIANRKI,0.6893 ± 0.00094
9,RKKIIRDKLNTS,0.709 ± 0.051
10,RKKKKKKRGKNR,0.621 ± 0.043
11,RKKREKNKKRKE,0.695 ± 0.049
12,RKKYPLMINGKR,0.711 ± 0.0073
13,RKMNEEKEIRRQ,0.6569 ± 0.0065
14,RKNQNAWMPALQ,0.702 ± 0.1
15,RKRWQWGRVRGV,0.617 ± 0.11
16,RKSCKRNERIRK,0.669 ± 0.035
17,RKSIGTAYRMPR,0.755 ± 0.081
18,RKSSLVARTGMI,0.623 ± 0.071
19,RKTEGGGEGLAV,0.728 ± 0.035
20,RLARAPTQPRLS,0.67 ± 0.062
21,RLASGGSAFINL,0.78 ± 0.2
22,RLAVLSLPPHPT,0.6685 ± 0.0037
23,RLCSPVSVLLPP,0.713 ± 0.047

row,Sequence,protein stability index
1,RLEAVLCRRFLR,0.6561 ± 0.0026
2,RLFFSRSVRSFF,0.529 ± 0.017
3,RLFTTVHSLQDV,0.674 ± 0.016
4,RLGNPPPFSTLG,0.691 ± 0.075
5,RLGWGGVGGAGV,0.711 ± 0.033
6,RLIPPQTAHEFP,0.685 ± 0.028
7,RLKFHRLVMTGY,0.612 ± 0.031
8,RLKTNKVIIKIK,0.6665 ± 0.0032
9,RLLAGLPLGGGN,0.656 ± 0.051
10,RLLCSETPPTLA,0.665 ± 0.014
11,RLLMIFTSKMFM,0.6623 ± 0.0019
12,RLLVSDSLLLGC,0.684 ± 0.014
13,RLNNRVMGHIEA,0.6673 ± 0.0062
14,RLNRSRAVTFRI,0.663 ± 0.019
15,RLPGLTHFLPKI,0.654 ± 0.038
16,RLPLSSPLRFSL,0.712 ± 0.06
17,RLPPLLVPFPSS,0.694 ± 0.015
18,RLPPPPPPPSTP,0.725 ± 0.053
19,RLPPPPPSPFPS,0.778 ± 0.056
20,RLPRHLPPAPAL,0.679 ± 0.025
21,RLPRRSVGRSTG,0.673 ± 0.078
22,RLRPVLSPHAPI,0.648 ± 0.033
23,RLTEVRVTLGSL,0.711 ± 0.082

row,Sequence,protein stability index
1,RLTKTRNDLRSL,0.654 ± 0.016
2,RLTSPVLLFPLP,0.713 ± 0.013
3,RLVRVTSIKGKR,0.735 ± 0.054
4,RMINRLEKKHTK,0.771 ± 0.098
5,RMKKYKYELDLN,0.659 ± 0.019
6,RNKKKKNKNEKE,0.705 ± 0.0073
7,RNKNNKKNKKIR,0.702 ± 0.1
8,RNNKMYKYQGNL,0.662 ± 0.083
9,RNQQQENNKQSK,0.694 ± 0.016
10,RNSTDENDCGRK,0.7062 ± 0.00038
11,RNTKGRIKKKKE,0.728 ± 0.039
12,RNTRAVREHRNV,0.726 ± 0.0092
13,RNTSQNRIDEKL,0.657 ± 0.014
14,RNVALPSRKAQY,0.715 ± 0.016
15,RNYQKAKENMKL,0.585 ± 0.14
16,RPAPASAFPHSP,0.69 ± 0.045
17,RPASPRSPIVSR,0.726 ± 0.024
18,RPAVPSPRPPPP,0.674 ± 0.029
19,RPELGLCAGDTN,0.673 ± 0.061
20,RPFAPLPPPPSM,0.689 ± 0.025
21,RPFATVLRTRAV,0.71 ± 0.0077
22,RPGGVRVVSIQL,0.672 ± 0.06
23,RPGYDRNRTGMI,0.738 ± 0.073

row,Sequence,protein stability index
1,RPHAFHCDPSSP,0.698 ± 0.11
2,RPKTLGNAREEG,0.708 ± 0.039
3,RPKWLCAIATAD,0.687 ± 0.023
4,RPLPGAFLLFRS,0.695 ± 0.021
5,RPLRRQREVCGA,0.597 ± 0.019
6,RPLRVLSYVPIH,0.644 ± 0.03
7,RPLWVDGPHPSR,0.666 ± 0.1
8,RPMKGLSMGSCA,0.66 ± 0.011
9,RPPFPLRTSPLV,0.694 ± 0.037
10,RPPLSPLLYPPP,0.7115 ± 0.0022
11,RPPPALWPPPSP,0.694 ± 0.027
12,RPPPSPPPIPSP,0.666 ± 0.033
13,RPPRPPTHSPPP,0.68 ± 0.01
14,RPRPKRCGPRSV,0.672 ± 0.052
15,RPRQAAAQGGAR,0.694 ± 0.036
16,RPRVCFPHIAGT,0.777 ± 0.11
17,RPSARSLVSPSP,0.716 ± 0.025
18,RPTGHAPSRALT,0.659 ± 0.062
19,RPVPVPTALIPS,0.61 ± 0.013
20,RPVSQRRRKHIG,0.645 ± 0.064
21,RPWAKGTGGRCY,0.723 ± 0.21
22,RPYGKQTERYVK,0.672 ± 0.029
23,RPYLSPPPPTSP,0.687 ± 0.093

row,Sequence,protein stability index
1,RQFLSLLPCSLP,0.771 ± 0.094
2,RQGMGPKLVKHQ,0.633 ± 0.1
3,RQHPPLPSFPSP,0.759 ± 0.06
4,RQKAQESNTQPP,0.73 ± 0.044
5,RQLVNKKIKEKK,0.7258 ± 0.0051
6,RQPPPRSPPSYL,0.75 ± 0.063
7,RQQRKIYTDKQD,0.754 ± 0.0057
8,RQQSIIDNQIGQ,0.6802 ± 0.0061
9,RRAKMHSRRSLA,0.648 ± 0.053
10,RRAKMSWCCKKY,0.69 ± 0.0098
11,RRCRLNPPIDST,0.683 ± 0.088
12,RREVKKNGNKRN,0.713 ± 0.073
13,RRFKIDKNKIKL,0.683 ± 0.018
14,RRGKIETKESKK,0.712 ± 0.044
15,RRGTRGGGGRER,0.638 ± 0.019
16,RRGWVRWRVGAA,0.667 ± 0.074
17,RRLFGLGWDVKI,0.7177 ± 0.0034
18,RRMVRLDACASV,0.659 ± 0.041
19,RRNISRQNKKKR,0.76 ± 0.11
20,RRPPPPRGPSPP,0.713 ± 0.02
21,RRPPRVYLQLSI,0.67 ± 0.066
22,RRQPPRDQGTPC,0.795 ± 0.13
23,RRREGTVPWYIS,0.605 ± 0.057

row,Sequence,protein stability index
1,RRRKPAEHTPPW,0.755 ± 0.1
2,RRRNSTFTNLDT,0.6783 ± 0.0045
3,RRRSLLLTYSYV,0.541 ± 0.055
4,RRSLDQSIQAKC,0.643 ± 0.055
5,RRTAVEEWGVGG,0.672 ± 0.12
6,RRTEGLATAGRV,0.666 ± 0.072
7,RRVGSGGLEGIG,0.528 ± 0.019
8,RRVPVVSRSGGG,0.697 ± 0.043
9,RRWGLIGVMSYL,0.732 ± 0.089
10,RSAMRLFEPFSP,0.745 ± 0.19
11,RSEGEGGKGKRE,0.687 ± 0.019
12,RSFVSRGSILWF,0.723 ± 0.13
13,RSGAAREVSGGA,0.7546 ± 0.0052
14,RSGRCWSFPFSV,0.703 ± 0.026
15,RSHRGSPCPLVP,0.69 ± 0.025
16,RSISGVNMENVQ,0.639 ± 0.018
17,RSLDEPCGFFRP,0.637 ± 0.023
18,RSLSLAPSFPLP,0.697 ± 0.0086
19,RSPINSRRGGVV,0.689 ± 0.0097
20,RSPPAPRFLPAP,0.652 ± 0.049
21,RSPPPLPSPPSH,0.709 ± 0.035
22,RSPPPPPGPRFP,0.698 ± 0.019
23,RSPPTQGQTPTT,0.696 ± 0.028

row,Sequence,protein stability index
1,RSRCYSNIRIFI,0.589 ± 0.048
2,RSRSELRVFCTS,0.556 ± 0.011
3,RSSARPQNRPLP,0.733 ± 0.035
4,RSSFCILCCLFS,0.557 ± 0.024
5,RSSIGNLCCRLL,0.6884 ± 0.0034
6,RSSPPSPPLLSP,0.611 ± 0.023
7,RSSTYGIMYSYR,0.715 ± 0.035
8,RSYRLRTSRADI,0.683 ± 0.1
9,RTHTAALCRTHS,0.7047 ± 0.0057
10,RTLAGLLVDSHV,0.679 ± 0.041
11,RTLHKKRLLAHR,0.693 ± 0.041
12,RTLSSFSPGYLF,0.8548 ± 0.0033
13,RTLYEAAPLFVG,0.729 ± 0.051
14,RTRLPYVPAPAP,0.686 ± 0.0092
15,RTRSVPWEPRYF,0.687 ± 0.03
16,RTSCEQYERGLM,0.673 ± 0.012
17,RTSPRSHVSRSL,0.79 ± 0.056
18,RTVPCCVAENKF,0.672 ± 0.012
19,RVCFVTNLVDVT,0.721 ± 0.096
20,RVDALVHLPLRL,0.629 ± 0.03
21,RVETYQKMTSRL,0.757 ± 0.0092
22,RVFDPSRSTVVE,0.774 ± 0.018
